Source: patent US20040052799A1, “Nucleic acid and amino acid sequences relating to Helicobacter pylori for diagnostics and therapeutics” (Astra Aktiebolag, priority 1996, published 2004)

System: N[C@@H](CC=O)C(=O)O
Test: purified protein, by the assay type
Conditions: other: pH 8.0

H. pylori Asd (Helicobacter pylori J99)
Km: 54 µM
